For test [1], the target named is His-tagged-hMPR9 (domain 9 of human mannose-6-phosphate receptor with C-terminal His-tag) (human) (UniProt P11717). Kind of test: SPR (Biacore T100), His-tagged-hMPR9 on NTA chip, rhI2S as analyte. A general note: SPR reads the build-up and loss of mass on a sensor chip optically.
Test [2] addresses mannose 6-phosphate (M6P) receptor on cultured human fibroblasts (CCD-1076SK) (human) (UniProt P11717). Kind of test: cell-based or functional assay.
Test [3] concerns the target mannose 6-phosphate (M6P) receptor on cultured human fibroblasts (CCD-1076SK) (human), P11717. Kind of test: cell-based or functional assay.
The target of test [4] is His-tagged-hMPR9 (domain 9 of human mannose-6-phosphate receptor with C-terminal His-tag) (human) (UniProt P11717). Kind of test: SPR (Biacore T100), His-tagged-hMPR9 on NTA chip, rhI2S as analyte; high end of range over lots 1-7.
For test [5] the target is unchanged. Kind of test: SPR (Biacore T100), His-tagged-hMPR9 on NTA chip, rhI2S as analyte; average of lots 1-7.
Test [6] has the same target. Kind of test: SPR (Biacore T100), His-tagged-hMPR9 on NTA chip, rhI2S as analyte; low end of range over lots 1-7.

Sequence of mannose 6-phosphate (M6P) receptor on cultured human fibroblasts (CCD-1076SK) (human), P11717 (P11717 41-2491): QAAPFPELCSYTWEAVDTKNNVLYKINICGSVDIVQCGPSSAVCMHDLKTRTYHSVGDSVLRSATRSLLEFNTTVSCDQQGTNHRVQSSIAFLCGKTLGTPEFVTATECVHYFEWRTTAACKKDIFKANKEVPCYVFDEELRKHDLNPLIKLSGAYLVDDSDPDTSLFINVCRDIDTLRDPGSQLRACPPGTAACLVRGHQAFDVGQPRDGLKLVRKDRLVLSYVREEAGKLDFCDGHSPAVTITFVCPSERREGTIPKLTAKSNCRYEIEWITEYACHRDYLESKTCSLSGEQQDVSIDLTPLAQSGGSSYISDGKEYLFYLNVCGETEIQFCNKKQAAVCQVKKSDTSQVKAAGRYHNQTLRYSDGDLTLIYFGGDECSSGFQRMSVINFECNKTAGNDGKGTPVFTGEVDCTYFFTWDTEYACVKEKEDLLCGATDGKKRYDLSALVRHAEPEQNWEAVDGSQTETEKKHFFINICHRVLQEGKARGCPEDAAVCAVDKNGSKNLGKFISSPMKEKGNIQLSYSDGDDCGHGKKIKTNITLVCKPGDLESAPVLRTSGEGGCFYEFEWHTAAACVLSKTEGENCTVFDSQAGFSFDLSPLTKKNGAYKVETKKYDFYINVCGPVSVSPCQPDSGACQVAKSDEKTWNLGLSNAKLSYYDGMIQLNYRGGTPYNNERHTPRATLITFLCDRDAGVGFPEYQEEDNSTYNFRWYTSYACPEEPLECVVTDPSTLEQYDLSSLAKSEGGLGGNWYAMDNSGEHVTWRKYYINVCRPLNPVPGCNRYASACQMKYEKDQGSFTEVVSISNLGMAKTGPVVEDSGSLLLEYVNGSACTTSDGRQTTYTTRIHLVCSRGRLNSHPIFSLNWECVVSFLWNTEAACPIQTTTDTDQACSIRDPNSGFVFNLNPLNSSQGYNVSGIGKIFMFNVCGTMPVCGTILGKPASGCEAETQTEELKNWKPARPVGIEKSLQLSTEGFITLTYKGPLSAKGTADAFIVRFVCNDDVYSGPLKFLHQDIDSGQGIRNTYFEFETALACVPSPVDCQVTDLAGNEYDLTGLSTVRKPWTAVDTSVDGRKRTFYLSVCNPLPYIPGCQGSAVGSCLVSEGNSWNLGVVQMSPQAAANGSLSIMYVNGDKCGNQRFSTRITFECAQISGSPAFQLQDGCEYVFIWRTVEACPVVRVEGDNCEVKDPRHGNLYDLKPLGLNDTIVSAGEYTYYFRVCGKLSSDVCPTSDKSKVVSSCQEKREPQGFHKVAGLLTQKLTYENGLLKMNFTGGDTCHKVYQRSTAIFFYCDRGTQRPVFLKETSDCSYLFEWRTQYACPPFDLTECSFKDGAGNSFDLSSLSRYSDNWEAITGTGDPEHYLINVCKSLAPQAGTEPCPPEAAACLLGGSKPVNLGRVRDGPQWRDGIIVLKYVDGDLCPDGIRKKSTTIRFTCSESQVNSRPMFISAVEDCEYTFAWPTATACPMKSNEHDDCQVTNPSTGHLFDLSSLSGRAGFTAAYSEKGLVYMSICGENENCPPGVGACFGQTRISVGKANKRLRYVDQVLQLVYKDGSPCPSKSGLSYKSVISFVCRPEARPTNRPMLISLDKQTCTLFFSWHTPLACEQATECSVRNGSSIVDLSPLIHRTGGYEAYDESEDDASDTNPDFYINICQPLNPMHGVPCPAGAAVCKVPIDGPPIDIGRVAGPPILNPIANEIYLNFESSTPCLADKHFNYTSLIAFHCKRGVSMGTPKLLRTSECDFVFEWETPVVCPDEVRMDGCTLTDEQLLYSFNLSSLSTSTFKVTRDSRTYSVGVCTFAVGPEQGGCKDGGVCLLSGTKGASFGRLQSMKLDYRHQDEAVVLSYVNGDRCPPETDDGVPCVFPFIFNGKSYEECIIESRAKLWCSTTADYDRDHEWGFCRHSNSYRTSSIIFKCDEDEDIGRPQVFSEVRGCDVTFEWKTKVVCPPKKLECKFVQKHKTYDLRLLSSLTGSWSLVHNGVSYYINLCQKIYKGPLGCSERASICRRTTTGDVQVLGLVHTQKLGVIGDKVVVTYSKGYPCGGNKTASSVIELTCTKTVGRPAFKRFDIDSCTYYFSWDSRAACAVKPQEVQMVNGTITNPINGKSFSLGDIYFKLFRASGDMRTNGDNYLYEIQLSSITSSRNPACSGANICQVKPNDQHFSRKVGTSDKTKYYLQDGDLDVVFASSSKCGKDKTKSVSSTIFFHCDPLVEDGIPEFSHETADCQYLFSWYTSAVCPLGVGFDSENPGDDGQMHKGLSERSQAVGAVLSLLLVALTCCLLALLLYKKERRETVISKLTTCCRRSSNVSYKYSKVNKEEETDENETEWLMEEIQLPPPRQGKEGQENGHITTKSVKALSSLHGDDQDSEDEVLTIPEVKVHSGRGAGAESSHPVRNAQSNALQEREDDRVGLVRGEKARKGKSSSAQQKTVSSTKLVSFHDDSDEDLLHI

As a reminder, the Kd is the equilibrium constant for the complex coming apart. In test [1], “commercially-available medicinal rhI2S (from UniProt P22304 26-550) (enzyme)” registered a Kd of 3.32 nM. Also, in test [2], the EC50 of cellular uptake (human fibroblasts, 18 hrs, rhI2S in lysate by ELISA) came to 1.46 µg/mL.

B1: recombinant human iduronate 2-sulfatase (rhI2S) of the present invention (Lot Nos. 1-7), P22304 26-550 (enzyme)
chain: SETQANSTTDALNVLLIIVDDLRPSLGCYGDKLVRSPNIDQLASHSLLFQNAFAQQAVCAPSRVSFLTGRRPDTTRLYDFNSYWRVHAGNFSTIPQYFKENGYVTMSVGKVFHPGISSNHTDDSPYSWSFPPYHPSSEKYENTKTCRGPDGELHANLLCPVDVLDVPEGTLPDKQSTEQAIQLLEKMKTSASPFFLAVGYHKPHIPFRYPKEFQKLYPLENITLAPDPEVPDGLPPVAYNPWMDIRQREDVQALNISVPYGPIPVDFQRKIRQSYFASVSYLDTQVGRLLSALDDLQLANSTIIAFTSDHGWALGEHGEWAKYSNFDVATHVPLIFYVPGRTASLPEAGEKLFPYLDPFDSASQLMEPGRQSMDLVELVSLFPTLAGLAGLQVPPRCPVPSFHVELCREGKNLLKHFRFRDLEEDPYLPGNPRELIAYSQYPRPSDIPQWNSDKPSLKDIKIMGYSIRTIDYRYTVWVGFNPDEFLANFSDIHAGELYFVDSDPLQDHNMYNDSQGGDLFQLLMP
modifications: here or on the partner: glycosylated; linked oligosaccharide chains containing mannose-6-phosphate residues, 3.74-5.38 mol/mol (average 4.37 mol/mol)
Molecule B1 displayed an EC50 of cellular uptake (human fibroblasts, 18 hrs, rhI2S in lysate by ELISA) in test [3] of 0.452 µg/mL.

B2: recombinant human iduronate 2-sulfatase (rhI2S) of the present invention (Lot Nos. 1-7) (enzyme)
chain: SETQANSTTDALNVLLIIVDDLRPSLGCYGDKLVRSPNIDQLASHSLLFQNAFAQQAVCAPSRVSFLTGRRPDTTRLYDFNSYWRVHAGNFSTIPQYFKENGYVTMSVGKVFHPGISSNHTDDSPYSWSFPPYHPSSEKYENTKTCRGPDGELHANLLCPVDVLDVPEGTLPDKQSTEQAIQLLEKMKTSASPFFLAVGYHKPHIPFRYPKEFQKLYPLENITLAPDPEVPDGLPPVAYNPWMDIRQREDVQALNISVPYGPIPVDFQRKIRQSYFASVSYLDTQVGRLLSALDDLQLANSTIIAFTSDHGWALGEHGEWAKYSNFDVATHVPLIFYVPGRTASLPEAGEKLFPYLDPFDSASQLMEPGRQSMDLVELVSLFPTLAGLAGLQVPPRCPVPSFHVELCREGKNLLKHFRFRDLEEDPYLPGNPRELIAYSQYPRPSDIPQWNSDKPSLKDIKIMGYSIRTIDYRYTVWVGFNPDEFLANFSDIHAGELYFVDSDPLQDHNMYNDSQGGDLFQLLMP
modifications: glycosylated; linked oligosaccharide chains containing mannose-6-phosphate residues, 3.74-5.38 mol/mol (average 4.37 mol/mol)
With B2, the Kd turned out to be 1.23 nM in test [4], 1.04 nM in test [5] and 0.758 nM in test [6].

These data come from patent publication US20130330802A1.
